Experimental data: the supplement of paper PMC10567573

B1: C10orf62 (parent)
chain: RALEEVEMKLQKNFLTQRENTIAG

Variants of: B1
Assay: protein stability index of a GFP-peptide fusion (GPS, HEK-293T) (PSI 1-6); higher = more stable
Conditions: c terminus: a fixed tail appended
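Further: lentivirally expressed fusions sorted by FACS into six bins by GFP to DsRed ratio, PSI derived from sequencing read proportions per bin multiplied by bin number.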

Variant | protein stability index
RALEEVEMKLQKNFLAQRENTIAG | 2.98
RALEEVEMKLQKNFLTQRCNTIAG | 2.33
RALEEVEMKLQKNFLTQRANTIAG | 3.82
RALEEVEMKLQKNFPTQRENTIAG | 3.89
RALEEVEMKLQKNFGTQRENTIAG | 3.9
RALEEVEMKLQKNFSTQRENTIAG | 4.38
RALEEVEMKLQKNFCTQRENTIAG | 3.44
RALEEVEMKLQKNFTTQRENTIAG | 3.66
RALEEVEMKLQKNFKTQRENTIAG | 4.21
RALEEVEMKLQKNFQTQRENTIAG | 4.84
RALEEVEMKLQKNFMTQRENTIAG | 3.62
RALEEVEMKLQKNFHTQRENTIAG | 3.85
RALEEVEMKLQKNFYTQRENTIAG | 3.71
RALEEVEMKLQKNFATQRENTIAG | 3.92
RALEEVEMKLQKNFDTQRENTIAG | 4.69
RALEEVEMKLQKNFVTQRENTIAG | 3.77
RALEEVEMKLQKNFRTQRENTIAG | 3.94
RALEEVEMKLQKNFITQRENTIAG | 3.71
RALEEVEMKLQKNFWTQRENTIAG | 2.63
RALEEVEMKLQKNFNTQRENTIAG | 3.99
RALEEVEMKLQKNFETQRENTIAG | 4.3
RALEEVEMKLAKNFLTQRENTIAG | 3.31
RALEEVEMKLWKNFLTQRENTIAG | 1.98
RALEEVEMKLLKNFLTQRENTIAG | 2.28

Variant | protein stability index
RALEEVEMKLEKNFLTQRENTIAG | 4.28
RALEEVEMKLCKNFLTQRENTIAG | 3.52
RALEEVEMKLSKNFLTQRENTIAG | 3.48
RALEEVEMKLTKNFLTQRENTIAG | 3.73
RALEEVEMKLPKNFLTQRENTIAG | 3.9
RALEEVEMKLKKNFLTQRENTIAG | 3.31
RALEEVEMKLVKNFLTQRENTIAG | 2.82
RALEEVEMKLRKNFLTQRENTIAG | 3.71
RALEEVEMKLHKNFLTQRENTIAG | 2.94
RALEEVEMKLIKNFLTQRENTIAG | 2.13
RALEEVEMKLFKNFLTQRENTIAG | 2.44
RALEEVEMKLNKNFLTQRENTIAG | 3.51
RALEEVEMKLGKNFLTQRENTIAG | 3.63
RALEEVEMKLDKNFLTQRENTIAG | 4.43
RALEEVEMKLMKNFLTQRENTIAG | 2.64
RALEEVEMKLYKNFLTQRENTIAG | 2.78
RALEEVEMFLQKNFLTQRENTIAG | 2.24
RALEEVEMSLQKNFLTQRENTIAG | 3.06
RALEEVEMELQKNFLTQRENTIAG | 3.9
RALEEVEMHLQKNFLTQRENTIAG | 2.93
RALEEVEMTLQKNFLTQRENTIAG | 3.4
RALEEVEMMLQKNFLTQRENTIAG | 2.79
RALEEVEMYLQKNFLTQRENTIAG | 1.67
RALEEVEMWLQKNFLTQRENTIAG | 1.4

Variant | protein stability index
RALEEVEMQLQKNFLTQRENTIAG | 3.13
RALEEVEMNLQKNFLTQRENTIAG | 2.98
RALEEVEMGLQKNFLTQRENTIAG | 3.75
RALEEVEMILQKNFLTQRENTIAG | 2.08
RALEEVEMPLQKNFLTQRENTIAG | 3.51
RALEEVEMVLQKNFLTQRENTIAG | 2.55
RALEEVEMLLQKNFLTQRENTIAG | 1.73
RALEEVEMRLQKNFLTQRENTIAG | 2.31
RALEEVEMKLQKNFLTNRENTIAG | 3.89
RALEEVEMKLQKNFLTPRENTIAG | 3.69
RALEEVEMKLQKNFLTFRENTIAG | 2.13
RALEEVEMKLQKNFLTARENTIAG | 3.42
RALEEVEMKLQKNFLTGRENTIAG | 3.73
RALEEVEMKLQKNFLTLRENTIAG | 3.03
RALEEVEMKLQKNFLTYRENTIAG | 2.48
RALEEVEMKLQKNFLTHRENTIAG | 3.31
RALEEVEMKLQKNFLTDRENTIAG | 4.13
RALEEVEMKLQKNFLTIRENTIAG | 2.89
RALEEVEMKLQKNFLTMRENTIAG | 3.56
RALEEVEMKLQKNFLTRRENTIAG | 2.74
RALEEVEMKLQKNFLTSRENTIAG | 3.85
RALEEVEMKLQKNFLTWRENTIAG | 2.92
RALEEVEMKLQKNFLTTRENTIAG | 3.2
RALEEVEMKLQKNFLTVRENTIAG | 3.06

Variant | protein stability index
RALEEVEMKLQKNFLTERENTIAG | 3.96
RALEEVEMKLQKNFLTCRENTIAG | 3.21
RALEEVEMKLQKNFLTKRENTIAG | 3.5
RALEEVEMKLQYNFLTQRENTIAG | 2.3
RALEEVEMKLQNNFLTQRENTIAG | 4.44
RALEEVEMKLQQNFLTQRENTIAG | 3.72
RALEEVEMKLQTNFLTQRENTIAG | 4.2
RALEEVEMKLQMNFLTQRENTIAG | 2.86
RALEEVEMKLQGNFLTQRENTIAG | 3.77
RALEEVEMKLQFNFLTQRENTIAG | 2
RALEEVEMKLQWNFLTQRENTIAG | 1.94
RALEEVEMKLQENFLTQRENTIAG | 4.05
RALEEVEMKLQVNFLTQRENTIAG | 2.31
RALEEVEMKLQCNFLTQRENTIAG | 3.3
RALEEVEMKLQLNFLTQRENTIAG | 2.67
RALEEVEMKLQANFLTQRENTIAG | 3.77
RALEEVEMKLQHNFLTQRENTIAG | 3.43
RALEEVEMKLQRNFLTQRENTIAG | 3.31
RALEEVEMKLQSNFLTQRENTIAG | 2.77
RALEEVEMKLQINFLTQRENTIAG | 2.15
RALEEVEMKLQPNFLTQRENTIAG | 4.14
RALEEVEMKLQDNFLTQRENTIAG | 4.03
